± gives the uncertainty stated by the source.

From the supplement of paper PMC12042874 come the findings set out here.

The series can be described thus: amyloid nucleation score (Sup35N fusion, yeast selection) (log enrichment); library NNK3; higher = more nucleation; inactive = no reads after selection. A digest of the protocol: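 The nucleation score equals the log enrichment of output over input reads from DiMSum, centred on the mode score of non-aggregating sequences. It was computed only for sequences with 100 or more input reads. The reads came from Illumina sequencing of plasmid inserts from psi-negative yeast expressing Sup35N fused to peptides of 20 random codons, induced with 100 μM copper sulfate for 24 hours and grown 7 days at 30°C without adenine and uracil.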
For YNFGLVNV, the amyloid nucleation score result was “inactive”.

Take TFQRSGT: the amyloid nucleation score entry was “inactive”.

On to SVRLSIVAGWFCKIWYSFLL, for which the amyloid nucleation score entry was “inactive”.

In turn, HLPKLLYATFKWSRYSSKFA gave an amyloid nucleation score of -0.172 ± 1.3.

Regarding EAYDGKSSICSRCS, the amyloid nucleation score entry is “inactive”.

For the substance FVCKMVMIRRGDTWKVSKVV, the amyloid nucleation score entry is “inactive”.

Take YDGCDS: the amyloid nucleation score entry was “inactive”.

Take LSINLASSSGVSVLLKGSNL: the amyloid nucleation score was found to be 0.87 ± 0.24.

As for LGGNMTCLSQDYLRTSKELL, the amyloid nucleation score entry was “inactive”.

For ASFLVYGP, the amyloid nucleation score entry was “inactive”.

Consider YYLGLLTYRWGLRFFYLIVS, for which the amyloid nucleation score entry is “inactive”.

For the substance TLWMQILDAKYRSCSLRLRR, the amyloid nucleation score entry is “inactive”.

Turning to ICPTWELNIRP, the amyloid nucleation score entry was “inactive”.

As for WAVIKLMRSERTVGVWGSNT, the amyloid nucleation score result was “inactive”.

Consider RWNEAHITSYVYSRTSMWVF, for which the amyloid nucleation score entry was “inactive”.

With QLLSLKWYYVTRILCARYAD, the amyloid nucleation score result was “inactive”.

In turn, PNHYWFVAQFWLFSLTACHR gave an amyloid nucleation score of 0.02 ± 0.77.

With AFVDAQQVNGLYGWYDSKCD, the amyloid nucleation score result was “inactive”.

For the substance RLVCCKSHPFDVRYF, the amyloid nucleation score result was “inactive”.

With CYIYLSMQYGEHANDIICLW, the amyloid nucleation score entry was “inactive”.

STYGRMAR: the amyloid nucleation score result was “inactive”.

For LVNDKMLCNYHAMMRLFFFM, the amyloid nucleation score result was “inactive”.

With LSVLFCLDGK, the amyloid nucleation score entry was “inactive”.

With PYSLPSP, the amyloid nucleation score result is “inactive”.

In the case of HSSSLLRLQPVVHYLLLNVD, the amyloid nucleation score result was “inactive”.

In the case of SPNNTTFSHYRFCLL, the amyloid nucleation score result is “inactive”.

Take CDSTSITWGHVLWFYINYWM: the amyloid nucleation score result was “inactive”.

Consider MFVVMWVDYLAEHMFYGRWW, for which the amyloid nucleation score entry was “inactive”.

As for EICGCCWKPVMWTGRCSCVY, the amyloid nucleation score result was “inactive”.

For the substance CRNCR, the amyloid nucleation score result was “inactive”.

RSQDNCR: the amyloid nucleation score entry was “inactive”.

For CTAILAVMSIGNFFNRLDLN, the amyloid nucleation score entry was “inactive”.

For the substance VNNKHVVWCSVHGGSSR, the amyloid nucleation score result is “inactive”.

As to SYWRLHVIIFLWFFYLRYFN, the amyloid nucleation score result is “inactive”.

Regarding ICIFVFFRYWHVVHVT, the amyloid nucleation score entry was “inactive”.

With PFPGRTLKWNLYTSQFFMAG, the amyloid nucleation score entry was “inactive”.

Consider FGHYRYEFCELSGHGMGVDA, for which the amyloid nucleation score result was “inactive”.

For FPARLYGYMFLKNSTLRFSR, the amyloid nucleation score result is “inactive”.

YHLSQAYDMKVYILNRCGLF returned an amyloid nucleation score of 0.506 ± 0.38.

As to YSWVKEYLSLLSYYCNYRVD, the amyloid nucleation score entry is “inactive”.

The substance HMGNKRLCYCSSR displayed an amyloid nucleation score of -0.326 ± 0.87.

For GCIMEEKFLRMDFDVVSEYN, the amyloid nucleation score entry is “inactive”.

Consider GNDVGSMFESRN, for which the amyloid nucleation score result was “inactive”.

As for VNHVIQNLVSNRSTWGICCT, the amyloid nucleation score result is “inactive”.

In the case of IVYGKHAWWIRLGSIHVFYY, the amyloid nucleation score entry was “inactive”.

RCNLTCLGMIDVTIS: the amyloid nucleation score result was “inactive”.

For RNIELSAPLFWSAAASDVVK, the amyloid nucleation score entry was “inactive”.

In the case of VMTIGTRV, the amyloid nucleation score result is “inactive”.

Regarding NSKGMLCWLTA, the amyloid nucleation score entry was “inactive”.

In the case of YLMFGTTNMAVLIRFEHH, the amyloid nucleation score entry is “inactive”.

For the substance KPTWQKEFVR, the amyloid nucleation score came out at 0.969 ± 0.19.

Regarding VMFLFGYNKVFKLSICWIGS, the amyloid nucleation score entry is “inactive”.

On to IRSVVIRVSFYFTWF, for which the amyloid nucleation score entry is “inactive”.

On to GFTVMDPIV, for which the amyloid nucleation score entry is “inactive”.

Consider VHHLLELEQVHNKDGTF, for which the amyloid nucleation score result was “inactive”.

Consider FIRKSPWQRFDTHFGIIDFK, for which the amyloid nucleation score is 0.778 ± 0.17.

On to NSYFKPVKSCNLQLGEVTLQ, for which the amyloid nucleation score result is “inactive”.

As for VWQWKGRCHVTNRYWYFCSS, the amyloid nucleation score entry is “inactive”.

Regarding LSKRRTIILGLVELRYSEVE, the amyloid nucleation score entry was “inactive”.

As for SGMTGCTFRYGSRIQF, the amyloid nucleation score result was “inactive”.

Regarding IVCRGYSSKWYSVSEYKDNV, the amyloid nucleation score turned out to be 0.016 ± 0.37.

Regarding FISSRLFTALLSRCNFHNRF, the amyloid nucleation score result is “inactive”.

As to GPQYWCVTRNNYYGSFYEVS, the amyloid nucleation score was 0.407 ± 0.18.

For GLQVYMIQRIETGM, the amyloid nucleation score result was “inactive”.

For the substance MLEGQSSCRVITDLARL, the amyloid nucleation score result is “inactive”.

Consider FGGSILTSYINGRGSAGLNW, for which the amyloid nucleation score was found to be 0.797 ± 0.22.

For YFLGECNPRCYLLRGLAAWN, the amyloid nucleation score entry was “inactive”.

KICGNRPGVSRYLVGLDVMC: the amyloid nucleation score result was “inactive”.

For SYCLTGTDSVINVIGAGPSQ, the amyloid nucleation score result is “inactive”.

Regarding RLYNTIFPSKKIWYKKLEGC, the amyloid nucleation score result is “inactive”.

As for SNWVISVLVRVNLAYAYLTD, the amyloid nucleation score result was “inactive”.

Consider YYLVSSMFYMFQSNEVNGNM, for which the amyloid nucleation score entry is “inactive”.

In turn, RLGEGKCTPYQWFVSNSTSN yielded an amyloid nucleation score of -0.166 ± 0.66.

Consider GRGNAGPCTSNRWDDFWEKK, for which the amyloid nucleation score result was “inactive”.

For QSLLDLMSFLMCV, the amyloid nucleation score entry was “inactive”.

As for QTSSTNPMVASKPQAQRACK, the amyloid nucleation score entry is “inactive”.

As to TLNIDGFIVFRTEVKGKLSY, the amyloid nucleation score entry was “inactive”.

ISVFIRTCMWKFVVVPRGYW: the amyloid nucleation score entry was “inactive”.

Take MIWWYGVRSMIIDTGWYMHC: the amyloid nucleation score entry is “inactive”.

For the substance VHFCWNADVSLHITLVGINS, the amyloid nucleation score result is “inactive”.

In the case of YSDWELVSGVQLA, the amyloid nucleation score entry is “inactive”.

On to KCCYRMVVDTV, for which the amyloid nucleation score entry was “inactive”.

Turning to IVGLSHDAINTYLWVVVNAP, the amyloid nucleation score result was “inactive”.

Turning to VVQGGGELVWFMFYDARCGT, the amyloid nucleation score entry was “inactive”.

Consider SMGRYDLLPTPDVVSLSYNM, for which the amyloid nucleation score result was “inactive”.

On to NLSVAMRLICVTLFLVLLGI, for which the amyloid nucleation score entry was “inactive”.

Turning to PSMSADGADLSGCQLIMVLS, the amyloid nucleation score entry was “inactive”.

For RRGVRPNATMSA, the amyloid nucleation score entry was “inactive”.

On to SVSVLHSYYLIYVCRDFFMK, for which the amyloid nucleation score came to 0.865 ± 0.12.

For the substance LWLFSGCFGYYVILATLYFL, the amyloid nucleation score result is “inactive”.

As to EKYRNGGY, the amyloid nucleation score result is “inactive”.

For VSRKRQLWEKCGTFVQRASM, the amyloid nucleation score entry is “inactive”.

For the substance VHKYSVDFGKGW, the amyloid nucleation score result was “inactive”.

Consider FGSFVRSMALESYLNYINAA, for which the amyloid nucleation score entry is “inactive”.

On to FRAYWLYISALAHQIITMLK, for which the amyloid nucleation score result is “inactive”.

Take VLFNSPTRGVHLLQTGSRQS: the amyloid nucleation score entry is “inactive”.

As for RSTQRTLPQ, the amyloid nucleation score result is “inactive”.

On to KCAEL, for which the amyloid nucleation score entry was “inactive”.

For RAEMMSYTLVQIIGYISIVE, the amyloid nucleation score result is “inactive”.

As for GLVSGGVFMMADMSRILKGK, the amyloid nucleation score result was “inactive”.

Turning to VQSTVVQVGDWY, the amyloid nucleation score result was “inactive”.

Turning to QRITDKMSYADSLLRSST, the amyloid nucleation score entry is “inactive”.

As to SMVGVFQKVFKTITTTYADV, the amyloid nucleation score result was “inactive”.

In the case of QHSLGG, the amyloid nucleation score result is “inactive”.

As for MKFPEFQASCL, the amyloid nucleation score entry was “inactive”.

RARALLAHLKVPSKPVFTAV: the amyloid nucleation score result is “inactive”.

Turning to LQYRSL, the amyloid nucleation score result was “inactive”.

For AICVLRSMKLLYQVWTW, the amyloid nucleation score entry is “inactive”.

CANCMNNVCVSCGCSLQLTL gave an amyloid nucleation score of 2.89 ± 0.054.

In the case of DFYLDLITLDNRTTSSTSML, the amyloid nucleation score entry is “inactive”.

As to KINLLSCLPVLRYYWISSLA, the amyloid nucleation score entry is “inactive”.

As to FIEVEVWRESSR, the amyloid nucleation score result is “inactive”.

With SHISWSQYRM, the amyloid nucleation score was determined as 1.58 ± 0.11.

The substance VVMHAYCWLWNYSDFSIMGS came in with an amyloid nucleation score of 1.57 ± 0.094.

In the case of DNDVHKELFSPAASLSSTWS, the amyloid nucleation score entry was “inactive”.

Take HHTKILSSYISWVYILITNS: the amyloid nucleation score result is “inactive”.

LADWQMGVPRGLQVMVCTTL: the amyloid nucleation score entry was “inactive”.

As to TCKVMSSGYYVLYLDVRV, the amyloid nucleation score result is “inactive”.

Consider KVYKLGVSRRSVKAT, for which the amyloid nucleation score result is “inactive”.

DDYLPMISPFRCYSQFKYIS: the amyloid nucleation score entry is “inactive”.

As for LLCSKARSCRVDRMKRGGWV, the amyloid nucleation score entry is “inactive”.

As for TDGRITS, the amyloid nucleation score was determined as 0.492 ± 0.35.

NEIQVKQRYVPPVSVSFVWW yielded an amyloid nucleation score of 1.59 ± 0.086.

As to YACMCLCELSASYKLDTMC, the amyloid nucleation score entry is “inactive”.

For the substance TISATLVYQ, the amyloid nucleation score entry is “inactive”.

YLWRQYYALFCYCFWNLKGP: the amyloid nucleation score entry is “inactive”.

For LYDSIVHESKRLLATDRIRF, the amyloid nucleation score entry was “inactive”.

CWLPFVCCAQCLNRIDVVSR had an amyloid nucleation score of 2.32 ± 0.066.

For VFSDGLFVMTAAVYQYT, the amyloid nucleation score result was “inactive”.

Turning to VIYHPRFSRFLCEDWHDTCS, the amyloid nucleation score result is “inactive”.
